From patent US20030143712A1 (J DAVID GLADSTONE INSTITUTES, published 2003) come the findings set out here.

Substitutions are numbered along the chain they refer to.

First the molecules themselves.
T1: endogenous HDAC3, O15379
T1 chain: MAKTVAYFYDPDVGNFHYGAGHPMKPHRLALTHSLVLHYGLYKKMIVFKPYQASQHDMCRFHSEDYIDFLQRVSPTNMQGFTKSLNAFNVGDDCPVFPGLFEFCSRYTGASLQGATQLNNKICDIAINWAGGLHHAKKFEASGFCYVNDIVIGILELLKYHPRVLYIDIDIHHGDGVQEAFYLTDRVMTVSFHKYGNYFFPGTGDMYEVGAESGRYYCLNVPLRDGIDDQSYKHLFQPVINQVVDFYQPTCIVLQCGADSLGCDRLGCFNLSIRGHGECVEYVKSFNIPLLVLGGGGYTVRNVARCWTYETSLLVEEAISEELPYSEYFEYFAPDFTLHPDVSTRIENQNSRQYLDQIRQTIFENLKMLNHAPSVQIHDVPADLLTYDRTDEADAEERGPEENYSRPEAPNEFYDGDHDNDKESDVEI

T2: FLAG-tagged HDAC7-ΔMEF (expressed in DO11.10 cells) (human, UniProt Q8WUI4 1-952)
T2 construct: not shown: FLAG tag
T2 sequence: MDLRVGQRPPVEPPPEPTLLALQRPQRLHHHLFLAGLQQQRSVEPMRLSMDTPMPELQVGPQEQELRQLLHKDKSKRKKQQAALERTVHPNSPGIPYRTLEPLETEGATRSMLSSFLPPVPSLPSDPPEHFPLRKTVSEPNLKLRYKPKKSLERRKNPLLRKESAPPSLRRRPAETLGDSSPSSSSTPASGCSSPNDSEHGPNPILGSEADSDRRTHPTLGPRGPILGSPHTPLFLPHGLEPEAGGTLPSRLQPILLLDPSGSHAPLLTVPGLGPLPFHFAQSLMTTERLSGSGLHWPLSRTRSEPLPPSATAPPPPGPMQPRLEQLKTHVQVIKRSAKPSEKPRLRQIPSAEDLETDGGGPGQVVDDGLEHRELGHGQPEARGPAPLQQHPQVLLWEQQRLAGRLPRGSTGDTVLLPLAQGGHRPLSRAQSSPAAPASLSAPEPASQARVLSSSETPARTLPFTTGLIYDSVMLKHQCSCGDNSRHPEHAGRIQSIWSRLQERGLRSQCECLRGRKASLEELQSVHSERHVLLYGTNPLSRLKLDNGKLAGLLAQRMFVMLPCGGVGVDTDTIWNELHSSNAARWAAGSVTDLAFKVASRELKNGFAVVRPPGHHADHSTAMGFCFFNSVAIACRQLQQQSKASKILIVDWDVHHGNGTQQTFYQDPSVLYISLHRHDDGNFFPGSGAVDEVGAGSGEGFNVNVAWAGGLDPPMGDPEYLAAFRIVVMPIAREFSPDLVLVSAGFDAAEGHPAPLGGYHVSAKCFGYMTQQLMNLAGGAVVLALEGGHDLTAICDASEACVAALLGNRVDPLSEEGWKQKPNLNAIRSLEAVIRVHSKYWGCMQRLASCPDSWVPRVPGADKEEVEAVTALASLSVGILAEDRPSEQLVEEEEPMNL

T3: FLAG-tagged HDAC7-K86AK88A (expressed in DO11.10 cells) (human, UniProt Q8WUI4 1-952)
T3 construct: not shown: FLAG tag
T3 sequence: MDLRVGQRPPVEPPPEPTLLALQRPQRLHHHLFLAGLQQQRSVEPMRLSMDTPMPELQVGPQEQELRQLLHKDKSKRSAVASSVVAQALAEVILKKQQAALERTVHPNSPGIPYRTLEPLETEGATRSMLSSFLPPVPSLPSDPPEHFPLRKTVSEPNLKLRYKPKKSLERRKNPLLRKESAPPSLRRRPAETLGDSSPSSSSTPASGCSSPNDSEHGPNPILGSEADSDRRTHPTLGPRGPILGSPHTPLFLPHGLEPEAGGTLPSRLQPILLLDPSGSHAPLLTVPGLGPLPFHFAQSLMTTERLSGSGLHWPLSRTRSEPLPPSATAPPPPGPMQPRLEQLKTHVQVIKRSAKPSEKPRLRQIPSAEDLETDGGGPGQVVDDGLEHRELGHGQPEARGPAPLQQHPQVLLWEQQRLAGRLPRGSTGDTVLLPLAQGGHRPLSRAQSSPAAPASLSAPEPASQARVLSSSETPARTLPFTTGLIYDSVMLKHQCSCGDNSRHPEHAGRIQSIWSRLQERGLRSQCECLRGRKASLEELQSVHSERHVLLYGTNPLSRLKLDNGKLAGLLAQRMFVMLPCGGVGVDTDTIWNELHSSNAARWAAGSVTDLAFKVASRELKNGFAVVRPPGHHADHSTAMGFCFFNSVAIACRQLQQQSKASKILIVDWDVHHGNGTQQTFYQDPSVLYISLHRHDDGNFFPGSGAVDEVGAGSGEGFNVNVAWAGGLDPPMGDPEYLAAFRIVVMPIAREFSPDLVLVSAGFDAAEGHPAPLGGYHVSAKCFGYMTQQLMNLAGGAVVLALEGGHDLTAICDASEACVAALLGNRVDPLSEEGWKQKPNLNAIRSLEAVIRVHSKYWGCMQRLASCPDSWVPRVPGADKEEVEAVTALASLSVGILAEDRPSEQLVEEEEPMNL

B1: endogenous HDAC3 (enzyme, UniProt O15379 1-428, looked up)
chain: T1 chain
notes: SupT1 and 293 are human cell lines
B2: GST-HDAC7(aa 487-912) (enzyme)
chain: YDSVMLKHQCSCGDNSRHPEHAGRIQSIWSRLQERGLRSQCECLRGRKASLEELQSVHSERHVLLYGTNPLSRLKLDNGKLAGLLAQRMFVMLPCGGVGVDTDTIWNELHSSNAARWAAGSVTDLAFKVASRELKNGFAVVRPPGHHADHSTAMGFCFFNSVAIACRQLQQQSKASKILIVDWDVHHGNGTQQTFYQDPSVLYISLHRHDDGNFFPGSGAVDEVGAGSGEGFNVNVAWAGGLDPPMGDPEYLAAFRIVVMPIAREFSPDLVLVSAGFDAAEGHPAPLGGYHVSAKCFGYMTQQLMNLAGGAVVLALEGGHDLTAICDASEACVAALLGNRVDPLSEEGWKQKPNLNAIRSLEAVIRVHSKYWGCMQRLASCPDSWVPRVPGADKEEVEAVTALASLSVGILAEDRPSEQLVEEEEP
notes: not shown: glutathione-S-transferase (GST) of the pGEX4T1 vector (Pharmacia), N-terminal fusion partner
B3: HDAC7-FLAG (full-length human HDAC7 with C-terminal FLAG tag, expressed in cells) (protein)
chain: T3 sequence with A86K, A88K
B4: GST-HDAC4(aa 612-1084) (enzyme, human, UniProt P56524 612-1084, looked up)
chain: MEAAGIPVSFGGHRPLSRAQSSPASATFPVSVQEPPTKPRFTTGLVYDTLMLKHQCTCGSSSSHPEHAGRIQSIWSRLQETGLRGKCECIRGRKATLEELQTVHSEAHTLLYGTNPLNRQKLDSKKLLGSLASVFVRLPCGGVGVDSDTIWNEVHSAGAARLAVGCVVELVFKVATGELKNGFAVVRPPGHHAEESTPMGFCYFNSVAVAAKLLQQRLSVSKILIVDWDVHHGNGTQQAFYSDPSVLYMSLHRYDDGNFFPGSGAPDEVGTGPGVGFNVNMAFTGGLDPPMGDAEYLAAFRTVVMPIASEFAPDVVLVSSGFDAVEGHPTPLGGYNLSARCFGYLTKQLMGLAGGRIVLALEGGHDLTAICDASEACVSALLGNELDPLPEKVLQQRPNANAVRSMEKVMEIHSKYWRCLQRTTSTAGRSLIEAQTCENEEAETVTAMASLSVGVKPAEKRPDEEPMEEEPPL
notes: range 612-1084; also called recombinant fusion protein corresponding to the catalytically active domain of HDAC4; not shown: glutathione-S-transferase (GST), fusion partner
B5: endogenous MEF2D of DO11.10 T-cell hybridoma cells (other, UniProt Q63943 1-514, looked up)
chain: MGRKKIQIQRITDERNRQVTFTKRKFGLMKKAYELSVLCDCEIALIIFNHSNKLFQYASTDMDKVLLKYTEYNEPHESRTNADIIETLRKKGFNGCDSPEPDGEDSLEQSPLLEDKYRRASEELDGLFRRYGSSVPAPNFAMPVTVPVSNQSSMQFSNPSSSLVTPSLVTSSLTDPRLLSPQQPALQRNSVSPGLPQRPASAGAMLGGDLNSANGACPSPVGNGYVSARASPGLLPVANGNSLNKVIPAKSPPPPTHNTQLGAPSRKPDLRVITSQGGKGLMHHLTEDHLDLNNAQRLGVSQSTHSLTTPVVSVATPSLLSQGLPFSSMPTAYNTDYQLPSAELSSLPAFSSPAGLALGNVTAWQQPQPPQQPQPPQPPQSQPQPPQPQPQQPPQQQPHLVPVSLSNLIPGSPLPHVGAALTVTTHPHISIKSEPVSPSRERSPAPPPPAVFPAARPEPGEGLSSPAGGSYETGDRDDGRGDFGPTLGLLRPAPEPEAEGSAVKRMRLDTWTLK

The data set “GST-HDAC4(aa 612-1084)” addresses B4. Description: repeated incubation of 293 or SupT1 extracts with the GST fusion, western blot of the depleted extract. In general terms: In western blotting, separated proteins are transferred to a membrane and probed.
Method: (§1) Purity, as well as protein amount, was checked on SDS-PAGE gels stained with Coomassie Blue. […] After incubation for 3 hours at 4° C. with rocking, reactions were washed three times in IPLS, three times in the same buffer but at 1 M NaCl, and two times in HD buffer (Fischle et al., supra). Pulldown reactions were split, and either processed for histone deacetylase activity assays or for western blotting. For pulldown reactions with ³⁵S-labeled proteins, cDNAs were transcribed and translated with the TNT reticulocyte system (Promega). The labeling reaction (5 μl) was incubated with GST fusion proteins in a total volume of 200 μl of GST buffer (20 mM Tris-HCl, pH 8.0, 150 mM KCl, 5 mM DTT, 2 mM EDTA, 10% glycerol, 0.5% non fat dry milk, 0.1% NP-40) for 1 h at 4° C. with rocking. Reactions were washed five times in the same buffer, and bound proteins were resolved on denaturing SDS-PAGE gels for analysis by autoradiography.
(§2) First, we examined the possibility that GS\tilde{T}HDAC fusion proteins recruit common factors from cellular extracts.
Data set [1] concerns the target B1. Description: GST pull-down from SupT1 cell extracts, western blot.
Method: After incubation for 3 hours at 4° C. with rocking, reactions were washed three times in IPLS, three times in the same buffer but at 1 M NaCl, and two times in HD buffer (Fischle et al., supra). Pulldown reactions were split, and either processed for histone deacetylase activity assays or for western blotting. For pulldown reactions with ³⁵S-labeled proteins, cDNAs were transcribed and translated with the TNT reticulocyte system (Promega). The labeling reaction (5 μl) was incubated with GST fusion proteins in a total volume of 200 μl of GST buffer (20 mM Tris-HCl, pH 8.0, 150 mM KCl, 5 mM DTT, 2 mM EDTA, 10% glycerol, 0.5% non fat dry milk, 0.1% NP-40) for 1 h at 4° C. with rocking. Reactions were washed five times in the same buffer, and bound proteins were resolved on denaturing SDS-PAGE gels for analysis by autoradiography.
After extensive washing, the bound material was tested for HDAC activity.
A further data set has as its target T1, endogenous HDAC3, O15379.
Data set [2] has as its target B1. Nature of the data set: cell-based or functional assay.
A further data set concerns the target endogenous HDAC1 (UniProt Q13547 1-482). Nature of the data set: repeated incubation of 293 or SupT1 extracts with the GST fusion, western blot of the depleted extract.
Data set [3] has as its target T2, FLAG-tagged HDAC7-ΔMEF (expressed in …). Nature of the data set: anti-FLAG immunoprecipitation from DO11.10 polyclonal cell lines, endogenous MEF2D.
Method: (§3) For FLAG-tagged proteins, M2-agarose (Sigma) antibody was used at 15 μl/ml. For immunoprecipitation of endogenous HDAC7, anti-HDAC7 antiserum was used at approximately 10 μg/ml in combination with 20μ/ml of preblocked (10 mg/ml of bovine serum albumin) 50% protein G-Sepharose slurry (Amersham Pharmacia Biotech). […] Bound proteins were subjected to SDS-PAGE electrophoresis and Western blot analysis.
(§4) After establishment of polyclonal cell lines, stably expressed protein were immunoprecipitated using an anti-FLAG antibody and assessed for binding to endogenous MEF2D.
In data set [4] the target is T3, FLAG-tagged HDAC7-K86AK88A (expressed …). Described as above.
Method: as §3, §4

Chain of endogenous HDAC1 (Q13547 whole entry, the tested form may be a part): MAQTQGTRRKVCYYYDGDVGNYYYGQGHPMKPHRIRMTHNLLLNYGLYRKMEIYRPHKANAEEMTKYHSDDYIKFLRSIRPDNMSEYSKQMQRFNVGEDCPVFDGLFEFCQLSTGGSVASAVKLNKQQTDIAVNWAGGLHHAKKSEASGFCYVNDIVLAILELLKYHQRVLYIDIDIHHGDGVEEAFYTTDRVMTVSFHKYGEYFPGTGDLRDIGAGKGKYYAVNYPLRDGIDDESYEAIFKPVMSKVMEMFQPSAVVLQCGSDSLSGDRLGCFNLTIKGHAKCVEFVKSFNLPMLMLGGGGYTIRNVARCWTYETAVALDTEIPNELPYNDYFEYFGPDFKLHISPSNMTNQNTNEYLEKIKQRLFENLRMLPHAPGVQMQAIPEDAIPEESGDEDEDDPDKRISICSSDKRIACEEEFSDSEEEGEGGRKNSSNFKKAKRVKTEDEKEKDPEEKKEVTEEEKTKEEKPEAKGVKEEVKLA
Method for endogenous HDAC1: as §1, §2

Turning to B1, the binding result with GST-HDAC4(aa 612-1084) is “binds”. Take B2: in the data set with endogenous HDAC3 [1], the binding result was “no binding”. B3: the “HDAC activity, nuclear against cytoplasmic fraction” value with endogenous HDAC3, O15379 is 4.5 times higher. In the data set with endogenous HDAC3 [2], this molecule gave an HDAC activity of HDAC7-FLAG immunoprecipitated from the cytoplasmic fraction of 293 cells of 3240 counts/min and an HDAC activity of HDAC7-FLAG immunoprecipitated from the nuclear fraction of 293 cells of 14800 counts/min.

Molecule B4 yielded an HDAC activity associated with the GST pull-down from GST-HDAC4 depleted lysate against GST depleted lysate (fold reduction) with endogenous HDAC3, O15379 of 3. In the data set with endogenous HDAC1, the binding result is “no binding”. On to B5, for which the binding result in data set [3] and in data set [4] was “no binding” in each case.
